This passage reports Kd results from the Immune Epitope Database (IEDB).

One assay concerns the target HLA-A*01:01. Put plainly: IEDB peptide-MHC binding, purified MHC/competitive/radioactivity; filed as Kd, often an IC50 or EC50 that approximates it; ≥ and ≤ were set here for values at or beyond the usual limits of such assays.
The target of the next assay is HLA-A*23:01. Described as above.
The target in a further assay is HLA-A*24:02. The assay is described as above.
The target of another assay is HLA-A*26:01. The assay is described as above.
The next assay concerns the target HLA-A*29:02. The description is as above.
In another assay the target is HLA-A*30:02. The assay is described as above.
The target in a further assay is HLA-B*07:02. Described as above.
For another assay, the target named is HLA-A*02:02. The assay is described as above. Particulars: source organism: Vaccinia virus WR.
The next assay concerns the target HLA-A*02:03. Described as above. The settings on record: source organism: Vaccinia virus WR.
The target of the next assay is HLA-A*02:06. The description is as above. The settings on record: source organism: Vaccinia virus WR.
A further assay has as its target HLA-B*08:01. Described as above. The settings on record: source organism: Vaccinia virus WR.
Another assay deals with HLA-B*53:01. The assay is described as above. The settings on record: source organism: Dengue virus 2 Jamaica/1409/1983.
The next assay concerns the target HLA-B*46:01. The assay is described as follows: IEDB peptide-MHC binding, purified MHC/direct/fluorescence; filed as Kd, often an IC50 or EC50 that approximates it; ≥ and ≤ were set here for values at or beyond the usual limits of such assays. The settings on record: source organism: West Nile virus.
Where [1] appears, read: source organism: SARS coronavirus Tor2.
The mark [2] stands for this setting: source organism: Mammarenavirus lassaense.
[3] abbreviates: source organism: Dengue virus 4 Philippines/H241/1956.
The mark [4] stands for this setting: source organism: Dengue virus 1 Brazil/97-11/1997.
Where [5] appears, read: source organism: Mammarenavirus guanaritoense.
Where [6] appears, read: source organism: Dengue virus 2 Jamaica/1409/1983.
[7] abbreviates: source organism: Mammarenavirus brazilense.
Setting [8] is: source organism: Lymphocytic choriomeningitis virus (strain Armstrong).

For AFRDVLVVL, the Kd – broadly, the concentration at which binding is half-saturated – with HLA-A*01:01 (setting [1]) was 15.9 µM; with HLA-A*23:01 (setting [1]), 1.97 µM; in the assay with HLA-A*24:02 (setting [1]) it was 6.82 µM; with HLA-A*26:01 (setting [1]) it was 13 µM; with HLA-A*29:02 (setting [1]), 14 µM; with HLA-A*30:02 (setting [1]) it was 9.83 µM.
Regarding AGFSAGLTY, the Kd with HLA-A*01:01 (setting [2]) is ≥ 23.9 µM; with HLA-A*23:01 (setting [2]), ≥ 43.8 µM; in the assay with HLA-A*24:02 (setting [2]) it was ≥ 77.5 µM; with HLA-A*26:01 (setting [2]), ≥ 77.9 µM; in the assay with HLA-A*29:02 (setting [2]) it was 0.0636 µM; with HLA-A*30:02 (setting [2]), 0.528 µM.
Turning to AGPFSQHNY, the Kd in the assay with HLA-A*30:02 (setting [3]) was determined as 0.472 µM.
For the sequence APHVGLGLET, in the assay with HLA-B*07:02 (setting [4]), the Kd amounted to 1.16 µM.
With ASLGPLRETY, the Kd is ≥ 114 µM in the assay with HLA-A*01:01 (setting [1]); ≥ 70 µM in the assay with HLA-A*23:01 (setting [1]); ≥ 70.3 µM with HLA-A*24:02 (setting [1]); ≥ 81.5 µM with HLA-A*26:01 (setting [1]); 0.557 µM with HLA-A*29:02 (setting [1]); 0.154 µM in the assay with HLA-A*30:02 (setting [1]).
Take AYEHKNRSRL: the Kd in the assay with HLA-A*23:01 (setting [5]) was 10.2 µM; in the assay with HLA-A*24:02 (setting [5]), ≥ 26.5 µM; in the assay with HLA-A*29:02 (setting [5]), ≥ 20.9 µM.
Take AYSFLPGVY: the Kd with HLA-A*01:01 (setting [1]) was 6.52 µM; with HLA-A*23:01 (setting [1]) it was 7.4 µM; in the assay with HLA-A*24:02 (setting [1]), 0.0308 µM; with HLA-A*26:01 (setting [1]) it was 6.39 µM; with HLA-A*29:02 (setting [1]), 0.00452 µM; with HLA-A*30:02 (setting [1]), 0.000267 µM.
Take DYDCVSFCY: the Kd is ≥ 58 µM with HLA-A*01:01 (setting [1]); ≥ 20.9 µM with HLA-A*23:01 (setting [1]); ≥ 20.2 µM with HLA-A*24:02 (setting [1]); 17.6 µM in the assay with HLA-A*26:01 (setting [1]); 0.145 µM in the assay with HLA-A*29:02 (setting [1]); 1.4 µM with HLA-A*30:02 (setting [1]).
Regarding DYSVLYNSTF, the Kd was ≥ 70.4 µM with HLA-A*01:01 (setting [1]); 0.159 µM with HLA-A*23:01 (setting [1]); 0.0242 µM with HLA-A*24:02 (setting [1]); 4.22 µM with HLA-A*26:01 (setting [1]); 2.54 µM with HLA-A*29:02 (setting [1]); ≥ 60.4 µM in the assay with HLA-A*30:02 (setting [1]).
Turning to EALYYVHSL, the Kd with HLA-A*02:02 was 14.2 µM; with HLA-A*02:03, 5.77 µM; with HLA-A*02:06, 14.8 µM; in the assay with HLA-B*08:01, 0.00211 µM.
Turning to ELCEDTMTY, the Kd with HLA-A*26:01 (setting [4]) was found to be 1.74 µM.
With ETAWDFGSVG, the Kd with HLA-A*26:01 (setting [3]) is 0.138 µM.
On to FLGEDGCWY, for which the Kd in the assay with HLA-A*01:01 (setting [3]) is 0.277 µM.
Regarding FVEGVSGGSW, the values for the Kd with HLA-A*26:01 (setting [6]) and with HLA-B*53:01 were 14.2 µM and 0.0488 µM, respectively.
On to GPMPVTVASA, for which the Kd in the assay with HLA-B*07:02 (setting [4]) is 0.0533 µM.
For the sequence GVIITWIGM, the Kd in the assay with HLA-A*26:01 (setting [6]) was found to be 15.7 µM.
On to HLAIMAVFKM, for which the dissociation constant (Kd) with HLA-A*26:01 (setting [3]) was 9.58 µM.
IDETCEHEY: the Kd with HLA-A*01:01 (setting [1]) is 11 µM; with HLA-A*23:01 (setting [1]), ≥ 77.8 µM; in the assay with HLA-A*24:02 (setting [1]), ≥ 77.6 µM; with HLA-A*26:01 (setting [1]), ≥ 32 µM; with HLA-A*29:02 (setting [1]), 2.85 µM; in the assay with HLA-A*30:02 (setting [1]) it was 0.162 µM.
With IMRNLTNLL, the figures for the Kd with HLA-A*23:01 (setting [5]), in the assay with HLA-A*24:02 (setting [5]) and with HLA-A*29:02 (setting [5]) were 6.15 µM, ≥ 33.1 µM and 0.305 µM, respectively.
For the sequence IPDVIELAY, the Kd was 5.51 µM with HLA-A*01:01 (setting [7]); 18.6 µM in the assay with HLA-A*23:01 (setting [7]); ≥ 33.5 µM with HLA-A*24:02 (setting [7]); ≥ 38.3 µM with HLA-A*26:01 (setting [7]); 3.15 µM with HLA-A*29:02 (setting [7]); 2.76 µM with HLA-A*30:02 (setting [7]).
IPLQWIASA: the Kd with HLA-B*07:02 (source organism: Dengue virus 3 Martinique/1243/1999) is 0.0884 µM.
Take KCWLVTNGSY: the Kd is 17.3 µM with HLA-A*01:01 (setting [8]); ≥ 70 µM with HLA-A*23:01 (setting [8]); ≥ 70.3 µM in the assay with HLA-A*24:02 (setting [8]); ≥ 69.7 µM in the assay with HLA-A*26:01 (setting [8]); 0.937 µM with HLA-A*29:02 (setting [8]); 0.0274 µM with HLA-A*30:02 (setting [8]).
As to KMETLQRKY, the Kd in the assay with HLA-A*30:02 (setting [6]) is ≥ 76.9 µM.
On to KVDAIDGEY, for which the Kd with HLA-A*01:01 (setting [6]) was determined as 0.953 µM; in the assay with HLA-A*30:02 (setting [6]), 0.171 µM.
For the sequence LIFRGPNVV, the Kd with HLA-A*01:01 (setting [8]) is 10.8 µM; with HLA-A*23:01 (setting [8]), 15.4 µM; in the assay with HLA-A*24:02 (setting [8]), ≥ 77.5 µM; with HLA-A*26:01 (setting [8]) it was ≥ 77.9 µM; in the assay with HLA-A*29:02 (setting [8]), ≥ 54.7 µM; with HLA-A*30:02 (setting [8]), 9.97 µM.
Take LLLLVAPAY: the Kd in the assay with HLA-B*46:01 was ≥ 20 µM.
